According to paper PMC12071944, “Interaction Between Glucagon-like Peptide 1 and Its Analogs with Amyloid-β Peptide Affects Its Fibrillation and Cytotoxicity” (International Journal of Molecular Sciences, 2025):
“And” between values parts separate entries of the source, which are not always exact repeats. Equal values may be shown once. Read-outs that look alike come from different tables or passages of the source.

Legend:
[1] = biological target: amyloid-β peptide, residues 1-40 (human) (UniProt P05067); assay: SPR
[2] = biological target: amyloid-β peptide, residues 1-42 (human) (UniProt P05067); assay: SPR
semaglutide (human) = assay: dynamic light scattering; 12 µM Sema; 25 °C; 25 mM Tris-HCl, 140 mM NaCl, 4.9 mM KCl, […] CaCl2, 1 mM MgCl2, pH 7.4; degree of multimerization MWRh/MWm
[3] = biological target: amyloid-β peptide, residues 1-40 (human) (UniProt P05067); assay: BLI; Aβ40/Aβ42 immobilised on amine-reactive sensors (EDAC/sulfo-NHS), washed with 0.5% SDS; analyte Sema, 17 µM on Aβ40 and 38 µM on Aβ42; 25 °C; 20 mM HEPES-KOH, 140 mM NaCl, 4.9 mM KCl, […] CaCl2, 1 mM MgCl2, pH 7.4; heterogeneous ligand scheme (2)
[4] = biological target: amyloid-β peptide, residues 1-42 (human) (UniProt P05067); assay: as above
liraglutide (human) [5] = assay: dynamic light scattering; 6 µM Lira; 25 °C; 25 mM Tris-HCl, 140 mM NaCl, 4.9 mM KCl, […] CaCl2, 1 mM MgCl2, pH 7.4; degree of multimerization MWRh/MWm
liraglutide (human) [6] = assay: dynamic light scattering; 13 µM Lira; 25 °C; 25 mM Tris-HCl, 140 mM NaCl, 4.9 mM KCl, […] CaCl2, 1 mM MgCl2, pH 7.4; degree of multimerization MWRh/MWm
liraglutide (human) [7] = assay: dynamic light scattering; 52 µM Lira; 25 °C; 25 mM Tris-HCl, 140 mM NaCl, 4.9 mM KCl, […] CaCl2, 1 mM MgCl2, pH 7.4; degree of multimerization MWRh/MWm
[8] = biological target: amyloid-β peptide, residues 1-40 (human) (UniProt P05067); assay: BLI; Aβ40/Aβ42 immobilised on amine-reactive sensors (EDAC/sulfo-NHS), washed with 0.5% SDS; analyte 5 µM Lira; 25 °C; 20 mM Tris-HCl, 140 mM NaCl, 4.9 mM KCl, […] CaCl2, 1 mM MgCl2, pH 7.4; single binding site model (1), fitted for each analyte concentration; apparent constants
[9] = biological target: amyloid-β peptide, residues 1-42 (human) (UniProt P05067); assay: as above
[10] = biological target: amyloid-β peptide, residues 1-40 (human) (UniProt P05067); assay: BLI; Aβ40/Aβ42 immobilised on amine-reactive sensors (EDAC/sulfo-NHS), washed with 0.5% SDS; analyte 10 µM Lira; 25 °C; 20 mM Tris-HCl, 140 mM NaCl, 4.9 mM KCl, […] CaCl2, 1 mM MgCl2, pH 7.4; single binding site model (1), fitted for each analyte concentration; apparent constants
[11] = biological target: amyloid-β peptide, residues 1-42 (human) (UniProt P05067); assay: as above
[12] = biological target: amyloid-β peptide, residues 1-40 (human) (UniProt P05067); assay: BLI; Aβ40/Aβ42 immobilised on amine-reactive sensors (EDAC/sulfo-NHS), washed with 0.5% SDS; analyte 20 µM Lira; 25 °C; 20 mM Tris-HCl, 140 mM NaCl, 4.9 mM KCl, […] CaCl2, 1 mM MgCl2, pH 7.4; single binding site model (1), fitted for each analyte concentration; apparent constants
[13] = biological target: amyloid-β peptide, residues 1-42 (human) (UniProt P05067); assay: as above
exenatide [14] = biological target: exenatide (UniProt P26349); assay: dynamic light scattering; 29 µM Exen; 25 °C; 25 mM Tris-HCl, 140 mM NaCl, 4.9 mM KCl, […] CaCl2, 1 mM MgCl2, pH 7.4; degree of multimerization MWRh/MWm
exenatide [15] = biological target: exenatide (UniProt P26349); assay: dynamic light scattering; 115 µM Exen; 25 °C; 25 mM Tris-HCl, 140 mM NaCl, 4.9 mM KCl, […] CaCl2, 1 mM MgCl2, pH 7.4; degree of multimerization MWRh/MWm
exenatide [16] = biological target: exenatide (UniProt P26349); assay: dynamic light scattering; 234 µM Exen; 25 °C; 25 mM Tris-HCl, 140 mM NaCl, 4.9 mM KCl, […] CaCl2, 1 mM MgCl2, pH 7.4; degree of multimerization MWRh/MWm
exenatide [17] = biological target: exenatide (UniProt P26349); assay: dynamic light scattering; […] µM Exen; 25 °C; 25 mM Tris-HCl, 140 mM NaCl, 4.9 mM KCl, […] CaCl2, 1 mM MgCl2, pH 7.4; degree of multimerization MWRh/MWm
[18] = biological target: amyloid-β peptide, residues 1-40 (human) (UniProt P05067); assay: BLI; Aβ40/Aβ42 immobilised on amine-reactive sensors (EDAC/sulfo-NHS), washed with 0.5% SDS; analyte 4–15 µM Exen; 25 °C; 20 mM Tris-HCl, 140 mM NaCl, 4.9 mM KCl, […] CaCl2, 1 mM MgCl2, pH 7.4; curves not fitted, KD estimated as the level of the analyte concentrations; apparent
[19] = biological target: amyloid-β peptide, residues 1-42 (human) (UniProt P05067); assay: as above
[20] = biological target: amyloid-β peptide, residues 1-40 (human) (UniProt P05067)
[21] = biological target: amyloid-β peptide, residues 1-42 (human) (UniProt P05067)

semaglutide (peptide)
KD1 (heterogeneous ligand model, site 1) [1]: 340 nM
KD2 (heterogeneous ligand model, site 2) [1]: 1.2 µM
ka1 (heterogeneous ligand model, site 1) [1]: 9600 M⁻¹ s⁻¹
ka2 (heterogeneous ligand model, site 2) [1]: 39000 M⁻¹ s⁻¹
kd1 (heterogeneous ligand model, site 1) [1]: 0.0032 s⁻¹
kd2 (heterogeneous ligand model, site 2) [1]: 0.0432 s⁻¹
KD1 (heterogeneous ligand model, site 1) [2]: 340 nM
KD2 (heterogeneous ligand model, site 2) [2]: 0.3 µM
ka1 (heterogeneous ligand model, site 1) [2]: 12600 M⁻¹ s⁻¹
ka2 (heterogeneous ligand model, site 2) [2]: 134000 M⁻¹ s⁻¹
kd1 (heterogeneous ligand model, site 1) [2]: 0.0041 s⁻¹
kd2 (heterogeneous ligand model, site 2) [2]: 0.038 s⁻¹
stoichiometry N (semaglutide (human)): 1.9
KD1 (heterogeneous ligand scheme, site 1) [3]: 12 µM
KD2 (heterogeneous ligand scheme, site 2) [3]: 16 µM
ka1 (heterogeneous ligand scheme, site 1) [3]: 310 M⁻¹ s⁻¹
ka2 (heterogeneous ligand scheme, site 2) [3]: 5700 M⁻¹ s⁻¹
kd1 (heterogeneous ligand scheme, site 1) [3]: 0.0037 s⁻¹
kd2 (heterogeneous ligand scheme, site 2) [3]: 0.091 s⁻¹
KD1 (heterogeneous ligand scheme, site 1) [4]: 11 µM
KD2 (heterogeneous ligand scheme, site 2) [4]: 22 µM
ka1 (heterogeneous ligand scheme, site 1) [4]: 582 M⁻¹ s⁻¹
ka2 (heterogeneous ligand scheme, site 2) [4]: 6100 M⁻¹ s⁻¹
kd1 (heterogeneous ligand scheme, site 1) [4]: 0.0064 s⁻¹
kd2 (heterogeneous ligand scheme, site 2) [4]: 0.134 s⁻¹

liraglutide (peptide)
KD1 (heterogeneous ligand model, site 1) [1]: 950 nM
KD2 (heterogeneous ligand model, site 2) [1]: 9.1 µM
ka1 (heterogeneous ligand model, site 1) [1]: 1440 M⁻¹ s⁻¹
ka2 (heterogeneous ligand model, site 2) [1]: 1900 M⁻¹ s⁻¹
kd1 (heterogeneous ligand model, site 1) [1]: 0.00119 s⁻¹
kd2 (heterogeneous ligand model, site 2) [1]: 0.017 s⁻¹
KD1 (heterogeneous ligand model, site 1) [2]: 520 nM
KD2 (heterogeneous ligand model, site 2) [2]: 5.6 µM
ka1 (heterogeneous ligand model, site 1) [2]: 2240 M⁻¹ s⁻¹
ka2 (heterogeneous ligand model, site 2) [2]: 2900 M⁻¹ s⁻¹
kd1 (heterogeneous ligand model, site 1) [2]: 0.00114 s⁻¹
kd2 (heterogeneous ligand model, site 2) [2]: 0.0164 s⁻¹
stoichiometry N (liraglutide (human) [5]): 8.2
stoichiometry N (liraglutide (human) [6]): 6.5
stoichiometry N (liraglutide (human) [7]): 16.3
Kd [8]: 0.042 µM
koff [8]: 0.000556 s⁻¹
kon [8]: 13400 M⁻¹ s⁻¹
Kd [9]: 0.045 µM
koff [9]: 0.00054 s⁻¹
kon [9]: 12100 M⁻¹ s⁻¹
Kd [10]: 0.048 µM
koff [10]: 0.000346 s⁻¹
kon [10]: 7300 M⁻¹ s⁻¹
Kd [11]: 0.06 µM
koff [11]: 0.000482 s⁻¹
kon [11]: 8000 M⁻¹ s⁻¹
Kd [12]: 0.11 µM
koff [12]: 0.0009 s⁻¹
kon [12]: 8400 M⁻¹ s⁻¹
Kd [13]: 0.11 µM
koff [13]: 0.0006 s⁻¹
kon [13]: 5700 M⁻¹ s⁻¹

exenatide (from UniProt P26349 48-87) (peptide)
stoichiometry N (exenatide [14]): 2.1
stoichiometry N (exenatide [15]): 6.4
stoichiometry N (exenatide [16]): 5.88
stoichiometry N (exenatide [17]): 1.6
Kd [18]: 4 µM and 15 µM
Kd [19]: 4 µM and 15 µM
Kd [20]: 1 µM
Kd [21]: 1 µM
